Test results reported in IntAct's records for PubMed 28515320.

B1: Nectin-2 (Homo sapiens), Q92692 (parent)
chain: MARAAALLPSRSPPTPLLWPLLLLLLLETGAQDVRVQVLPEVRGQLGGTVELPCHLLPPVPGLYISLVTWQRPDAPANHQNVAAFHPKMGPSFPSPKPGSERLSFVSAKQSTGQDTEAELQDATLALHGLTVEDEGNYTCEFATFPKGSVRGMTWLRVIAKPKNQAEAQKVTFSQDPTTVALCISKEGRPPARISWLSSLDWEAKETQVSGTLAGTVTVTSRFTLVPSGRADGVTVTCKVEHESFEEPALIPVTLSVRYPPEVSISGYDDNWYLGRTDATLSCDVRSNPEPTGYDWSTTSGTFPTSAVAQGSQLVIHAVDSLFNTTFVCTVTNAVGMGRAEQVIFVRETPNTAGAGATGGIIGGIIAAIIATAVAATGILICRQQRKEQTLQGAEEDEDLEGPPSYKPPTPKAKLEAQEMPSQLFTLGASEHSPLKTPYFDAGASCTEQEMPRYHELPTLEERSGPLHPGATSLGSPIPVPPGPPAVEDVSLDLEDEEGEEEEEYLDKINPIYDALSYSSPSDSYQGKGFVMSRAMYV
partner: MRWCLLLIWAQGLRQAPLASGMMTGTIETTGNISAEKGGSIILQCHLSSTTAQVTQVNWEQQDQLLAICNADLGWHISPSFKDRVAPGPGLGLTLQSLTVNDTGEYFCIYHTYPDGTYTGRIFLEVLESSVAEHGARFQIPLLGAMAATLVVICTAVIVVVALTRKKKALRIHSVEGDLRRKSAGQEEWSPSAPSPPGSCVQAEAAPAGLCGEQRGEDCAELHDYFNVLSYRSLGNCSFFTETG

Variants of: B1
Settings: with tigit_human TIGIT

Row | effect of a mutation on the interaction | Variant
1 | decreasing interaction strength | M89A
2 | disrupting interaction strength | F145A
3 | with no effect | E141A
4 | with no effect | E101A
5 | decreasing interaction strength | G90A

Second part, the variant before the results:

Row | Variant | effect of a mutation on the interaction
6 | A83R | decreasing interaction strength
7 | A83V | decreasing interaction strength
8 | L67Q | decreasing interaction strength
9 | L67A | decreasing interaction strength
10 | H86A | decreasing interaction strength
